This note sets out measurements from publication PMC12102759 (2025).

The chains are these.
B1: AMOTL2 peptide 66-81 (Angiomotin-like protein 2), 16-mer library wild type / TNKS ANK (TNKS 12 ANK repeats, residues 174-649) (parent complex)
chain 1: LQQATRQEPQGQEHQG
chain 2: TGVPAVSGALRELLEACRNGDVSRVKRLVDAANVNAKDMAGRKSSPLHFAAGFGRKDVVEHLLQMGANVHARDDGGLIPLHNACSFGHAEVVSLLLCQGADPNARDNWNYTPLHEAAIKGKIDVCIVLLQHGADPNIRNTDGKSALDLADPSAKAVLTGEYKKDELLEAARSGNEEKLMALLTPLNVNCHASDGRKSTPLHLAAGYNRVRIVQLLLQHGADVHAKDKGGLVPLHNACSYGHYEVTELLLKHGACVNAMDLWQFTPLHEAASKNRVEVCSLLLSHGADPTLVNCHGKSAVDMAPTPELRERLTYEFKGHSLLQAAREADLAKVKKTLALEIINFKQPQSHETALHCAVASLHPKRKQVTELLLRKGANVNEKNKDFMTPLHVAAERAHNDVMEVLHKHGAKMNALDTLGQTALHRAALAGHLQTCRLLLSYGSDPSIISLQGFTAAQMGNEAVQQILSESTPIRTSD

In this test the parent is B1. Kind of test: proteomic peptide phage display deep mutational scan (ProP-PD DMS): M13 P8 16-mer library selected against immobilised GST-tagged bait for four days (rounds), NGS of the eluted pools per day and pseudo-replica; bait immobilised on MaxiSorp plates (10 µg), library pre-cleared on GST, 2 h binding at 4 °C, five washes; one round per day, days 1-4; value from days 2 and 3.
Turning to chain 1 LQQATRQEPQGQIHQG, the screen value was 0.000226 average fractional NGS count over selection days 2 and 3 (reads of this peptide / all reads for the bait, averaged over ….
On to chain 1 LQQATRQEPQGQMHQG, for which the screen value was 0.000514 average fractional NGS count over selection days 2 and 3 (reads of this peptide / all reads for the bait, averaged over ….
For the variant chain 1 LQQATRQEPQGQLHQG, the screen value was 0.000144 average fractional NGS count over selection days 2 and 3 (reads of this peptide / all reads for the bait, averaged over ….
Turning to chain 1 LQQATRQEPQGQQHQG, the screen value is 0.000235 average fractional NGS count over selection days 2 and 3 (reads of this peptide / all reads for the bait, averaged over ….
As for chain 1 LQQATRQEPQGQVHQG, the figure is 0.00131 average fractional NGS count over selection days 2 and 3 (reads of this peptide / all reads for the bait, averaged over …; as for chain 1 LQQATRQEPQGQSHQG, 0.000101 average fractional NGS count over selection days 2 and 3 (reads of this peptide / all reads for the bait, averaged over …; as for chain 1 LQQAVRQEPQGQEHQG, 0.00996 average fractional NGS count over selection days 2 and 3 (reads of this peptide / all reads for the bait, averaged over ….
Under chain 1 LQQAGRQEPQGQEHQG stands 0.000124 average fractional NGS count over selection days 2 and 3 (reads of this peptide / all reads for the bait, averaged over …; under chain 1 LQQAFRQEPQGQEHQG, 0.00053 average fractional NGS count over selection days 2 and 3 (reads of this peptide / all reads for the bait, averaged over …; under chain 1 LQQAMRQEPQGQEHQG, 0.000134 average fractional NGS count over selection days 2 and 3 (reads of this peptide / all reads for the bait, averaged over ….
Under chain 1 LQQAYRQEPQGQEHQG stands 0.00023 average fractional NGS count over selection days 2 and 3 (reads of this peptide / all reads for the bait, averaged over …; under chain 1 LQQAHRQEPQGQEHQG, 0.00114 average fractional NGS count over selection days 2 and 3 (reads of this peptide / all reads for the bait, averaged over …; under chain 1 LQQADRQEPQGQEHQG, 0.000166 average fractional NGS count over selection days 2 and 3 (reads of this peptide / all reads for the bait, averaged over ….
In the case of chain 1 LQQAWRQEPQGQEHQG, the screen value is 0.000715 average fractional NGS count over selection days 2 and 3 (reads of this peptide / all reads for the bait, averaged over ….
Under chain 1 LQQAIRQEPQGQEHQG stands 0.000401 average fractional NGS count over selection days 2 and 3 (reads of this peptide / all reads for the bait, averaged over …; under chain 1 LQQAQRQEPQGQEHQG, 0.00116 average fractional NGS count over selection days 2 and 3 (reads of this peptide / all reads for the bait, averaged over ….
As for chain 1 LQQALRQEPQGQEHQG, the figure is 0.00104 average fractional NGS count over selection days 2 and 3 (reads of this peptide / all reads for the bait, averaged over …; as for chain 1 LQQATRQEPQGIEHQG, 9.74e-05 average fractional NGS count over selection days 2 and 3 (reads of this peptide / all reads for the bait, averaged over ….
As for chain 1 LQQATRQEPQGMEHQG, the figure is 0.000359 average fractional NGS count over selection days 2 and 3 (reads of this peptide / all reads for the bait, averaged over …; as for chain 1 LQQATRQEPQGFEHQG, 0.000217 average fractional NGS count over selection days 2 and 3 (reads of this peptide / all reads for the bait, averaged over …; as for chain 1 LQQATRQEPQGLEHQG, 0.000442 average fractional NGS count over selection days 2 and 3 (reads of this peptide / all reads for the bait, averaged over ….
Take chain 1 LQQATRQEPQGWEHQG: the screen value was 0.000131 average fractional NGS count over selection days 2 and 3 (reads of this peptide / all reads for the bait, averaged over ….
Under chain 1 LQQATRQEPQGHEHQG stands 0.00103 average fractional NGS count over selection days 2 and 3 (reads of this peptide / all reads for the bait, averaged over ….
For chain 1 LQQATRQEPQGYEHQG, the screen value was 0.000541 average fractional NGS count over selection days 2 and 3 (reads of this peptide / all reads for the bait, averaged over ….
As for chain 1 LQQATRQEPQGQEEQG, the figure is 0.000155 average fractional NGS count over selection days 2 and 3 (reads of this peptide / all reads for the bait, averaged over …; as for chain 1 LQQATRQEPQGQEWQG, 0.00121 average fractional NGS count over selection days 2 and 3 (reads of this peptide / all reads for the bait, averaged over ….
Take chain 1 LQQATRQEPQGQERQG: the screen value was 0.00174 average fractional NGS count over selection days 2 and 3 (reads of this peptide / all reads for the bait, averaged over ….
With chain 1 LQQATRQEPQGQEFQG, the screen value was 0.00233 average fractional NGS count over selection days 2 and 3 (reads of this peptide / all reads for the bait, averaged over ….
Take chain 1 LQQATRQEPQGQELQG: the screen value is 0.000412 average fractional NGS count over selection days 2 and 3 (reads of this peptide / all reads for the bait, averaged over ….
As to chain 1 LQQATRQEPQGQEMQG, the screen value is 0.000405 average fractional NGS count over selection days 2 and 3 (reads of this peptide / all reads for the bait, averaged over ….
As for chain 1 LQQATRQEPQGQESQG, the figure is 0.000117 average fractional NGS count over selection days 2 and 3 (reads of this peptide / all reads for the bait, averaged over ….
On to chain 1 LQQATRQEPQGQEAQG, for which the screen value is 0.00145 average fractional NGS count over selection days 2 and 3 (reads of this peptide / all reads for the bait, averaged over ….
As for chain 1 LQQATRQEPQTQEHQG, the figure is 0.000177 average fractional NGS count over selection days 2 and 3 (reads of this peptide / all reads for the bait, averaged over …; as for chain 1 LQQDTRQEPQGQEHQG, 0.000175 average fractional NGS count over selection days 2 and 3 (reads of this peptide / all reads for the bait, averaged over ….
Under chain 1 LQQGTRQEPQGQEHQG stands 0.00149 average fractional NGS count over selection days 2 and 3 (reads of this peptide / all reads for the bait, averaged over …; under chain 1 LQQRTRQEPQGQEHQG, 0.000178 average fractional NGS count over selection days 2 and 3 (reads of this peptide / all reads for the bait, averaged over …; under chain 1 LQQQTRQEPQGQEHQG, 0.00114 average fractional NGS count over selection days 2 and 3 (reads of this peptide / all reads for the bait, averaged over ….
Under chain 1 LQQHTRQEPQGQEHQG stands 0.000353 average fractional NGS count over selection days 2 and 3 (reads of this peptide / all reads for the bait, averaged over ….
With chain 1 LQQWTRQEPQGQEHQG, the screen value is 0.000419 average fractional NGS count over selection days 2 and 3 (reads of this peptide / all reads for the bait, averaged over ….
chain 1 LQQFTRQEPQGQEHQG: the screen value was 0.000957 average fractional NGS count over selection days 2 and 3 (reads of this peptide / all reads for the bait, averaged over ….
As for chain 1 LQQMTRQEPQGQEHQG, the figure is 0.00014 average fractional NGS count over selection days 2 and 3 (reads of this peptide / all reads for the bait, averaged over …; as for chain 1 LQQNTRQEPQGQEHQG, 0.000378 average fractional NGS count over selection days 2 and 3 (reads of this peptide / all reads for the bait, averaged over ….
As for chain 1 LQQSTRQEPQGQEHQG, the figure is 0.000138 average fractional NGS count over selection days 2 and 3 (reads of this peptide / all reads for the bait, averaged over ….
Under chain 1 LQQYTRQEPQGQEHQG stands 0.00172 average fractional NGS count over selection days 2 and 3 (reads of this peptide / all reads for the bait, averaged over …; under chain 1 LQQATRQLPQGQEHQG, 0.000201 average fractional NGS count over selection days 2 and 3 (reads of this peptide / all reads for the bait, averaged over ….
For chain 1 LQQATRQPPQGQEHQG, the screen value is 0.00018 average fractional NGS count over selection days 2 and 3 (reads of this peptide / all reads for the bait, averaged over ….
Under chain 1 LQQATRQWPQGQEHQG stands 0.000174 average fractional NGS count over selection days 2 and 3 (reads of this peptide / all reads for the bait, averaged over …; under chain 1 LQQATRQMPQGQEHQG, 0.000135 average fractional NGS count over selection days 2 and 3 (reads of this peptide / all reads for the bait, averaged over ….
Under chain 1 LQQATRQFPQGQEHQG stands 0.00124 average fractional NGS count over selection days 2 and 3 (reads of this peptide / all reads for the bait, averaged over …; under chain 1 LQQATRQVPQGQEHQG, 0.000436 average fractional NGS count over selection days 2 and 3 (reads of this peptide / all reads for the bait, averaged over …; under chain 1 LQQATRQAPQGQEHQG, 0.000174 average fractional NGS count over selection days 2 and 3 (reads of this peptide / all reads for the bait, averaged over ….
As for chain 1 LQQATRQQPQGQEHQG, the figure is 0.000434 average fractional NGS count over selection days 2 and 3 (reads of this peptide / all reads for the bait, averaged over ….
With chain 1 LQQATRQTPQGQEHQG, the screen value is 0.00026 average fractional NGS count over selection days 2 and 3 (reads of this peptide / all reads for the bait, averaged over ….
As for chain 1 LQQATRQDPQGQEHQG, the screen value was 0.000313 average fractional NGS count over selection days 2 and 3 (reads of this peptide / all reads for the bait, averaged over ….
As for chain 1 LQLATRQEPQGQEHQG, the figure is 0.000335 average fractional NGS count over selection days 2 and 3 (reads of this peptide / all reads for the bait, averaged over …; as for chain 1 LQHATRQEPQGQEHQG, 0.00741 average fractional NGS count over selection days 2 and 3 (reads of this peptide / all reads for the bait, averaged over ….
